Reference: patent US20200271647A1 (SEOUL NATIONAL UNIVERSITY HOSPITAL, published 2020)
Numbering of substitutions follows the chain as printed. Values belong to the binder of their own block, whether it stands above or below them.

Columns and labels:
[1] = target: c-Met protein receptor on human umbilical vein endothelial cells (HUVEC) (human, UniProt P08581 25-1390); test: cell-based or functional assay
[2] = target: T1, human c-Met antigen (Sino Biological) (human, UniProt P08581 25-932); test: derived from SPR KD; index 1 divided by the ratio of VH0/Vk0
T1 construct: Bought antigen used as the analyte in SPR; also called hepatocyte growth factor receptor; HGFR
T1 sequence (P08581 25-932 limits assumed): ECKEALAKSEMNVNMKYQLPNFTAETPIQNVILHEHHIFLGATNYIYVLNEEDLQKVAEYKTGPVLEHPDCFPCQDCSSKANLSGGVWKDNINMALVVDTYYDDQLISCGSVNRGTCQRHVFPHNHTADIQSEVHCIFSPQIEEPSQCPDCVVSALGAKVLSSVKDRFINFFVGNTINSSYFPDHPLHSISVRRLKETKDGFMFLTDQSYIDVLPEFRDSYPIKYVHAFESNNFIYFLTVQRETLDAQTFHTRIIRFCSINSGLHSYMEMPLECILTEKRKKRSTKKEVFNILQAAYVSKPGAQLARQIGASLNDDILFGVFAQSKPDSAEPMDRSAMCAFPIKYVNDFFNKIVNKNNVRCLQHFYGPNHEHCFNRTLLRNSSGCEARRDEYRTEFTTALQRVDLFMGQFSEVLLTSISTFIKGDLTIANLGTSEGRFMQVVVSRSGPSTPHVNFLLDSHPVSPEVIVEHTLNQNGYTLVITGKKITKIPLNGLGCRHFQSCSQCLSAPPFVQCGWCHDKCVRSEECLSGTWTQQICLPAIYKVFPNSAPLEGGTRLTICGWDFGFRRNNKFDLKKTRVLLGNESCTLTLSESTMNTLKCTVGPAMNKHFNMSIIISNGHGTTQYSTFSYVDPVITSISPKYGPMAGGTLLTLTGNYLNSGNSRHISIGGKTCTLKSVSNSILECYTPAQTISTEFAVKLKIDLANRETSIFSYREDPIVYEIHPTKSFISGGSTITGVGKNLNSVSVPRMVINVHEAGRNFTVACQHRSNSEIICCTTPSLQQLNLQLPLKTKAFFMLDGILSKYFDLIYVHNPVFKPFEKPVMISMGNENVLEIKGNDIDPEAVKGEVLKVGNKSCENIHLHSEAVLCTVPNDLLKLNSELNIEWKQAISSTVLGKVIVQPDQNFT
Method: (§1) After combining the above variants, each combination was subjected to measurement of a binding ability (that is, affinity). Then, using BIACORE T200 (serial no. 1909913) device, BIACORE T200 Control Software V2.0.1 and BIACORE T200 Evaluation Software V3.0 (GE Healthcare, Uppsala, Sweden) analysis program, affinity of each candidate antibody to the antigen, c-Met, was determined along with a dissociation constant (KD value). After fixing the anti-cMet antibody to be analyzed on a protein ACM5 chip (GE Healthcare, Little Chalfont, UK), sensorgrams were acquired by flowing human c-Met antigen (Sino Biological, Beijing, China) at different concentrations in a range of 0.25 to 2 nM over the antibody. Based on the acquired sensorgrams, rate constants kₒₙ and koff were measured and KD value was calculated from a ratio of koff/kₒₙ. The calculated results are shown in Table 10 below, wherein 10 analyzed antibodies were listed in the order of higher affinity to lower affinity.
(§2) In order to determine a final candidate group from the above selected candidate antibodies, standards for determination were subdivided into expression level, affinity, thermal stability and biopotency, and used for comparison. Generally, considering production time and costs, the expression level among the above standards is regarded as the most important indicator. Accordingly, in first consideration of smooth antibody production, the present inventors have excluded the candidate antibodies with an expression level of less than […]. Thereafter, compared to the reference antibody (VH0/Vk0), improvement of each candidate antibody was converted into a numerical value from each of selection indexes. Then, an assay value of the candidate antibody measured from the selection index was divided by an average assay value to obtain a ratio (index 1). This index 1 was again divided by a ratio of VH0/Vk0 to obtain index 2, which in turn, is normalized (Tables 12 to 15). Further, these numerical values analyzed from four selection indexes (that is, the above indicators) were subjected to multiplying operation, and the candidate antibodies were overall compared with respect to the four selection indexes. Therefore, the finally resultant values (index 3) were listed in the order (highest first).

[3] = target: T1, human c-Met antigen (Sino Biological); test: SPR (BIACORE T200), antibody captured on protein A CM5 chip, human c-Met as analyte
Method: as §1

[4] = target: T1, human c-Met antigen (Sino Biological); test: SPR (BIACORE T200), antibody captured on protein A CM5 chip, human c-Met 0.25 to 2 nM as analyte
Method: as §1

[5] = target: T1, human c-Met antigen (Sino Biological); test: derived from SPR KD (BIACORE T200); values fit 3.52/KD, i.e. relative to the best KD (VH5/Vk0); reference not given
Method: as §1, §2

Sequence of c-Met protein receptor on human umbilical vein endothelial cells (HUVEC) (P08581 25-1390): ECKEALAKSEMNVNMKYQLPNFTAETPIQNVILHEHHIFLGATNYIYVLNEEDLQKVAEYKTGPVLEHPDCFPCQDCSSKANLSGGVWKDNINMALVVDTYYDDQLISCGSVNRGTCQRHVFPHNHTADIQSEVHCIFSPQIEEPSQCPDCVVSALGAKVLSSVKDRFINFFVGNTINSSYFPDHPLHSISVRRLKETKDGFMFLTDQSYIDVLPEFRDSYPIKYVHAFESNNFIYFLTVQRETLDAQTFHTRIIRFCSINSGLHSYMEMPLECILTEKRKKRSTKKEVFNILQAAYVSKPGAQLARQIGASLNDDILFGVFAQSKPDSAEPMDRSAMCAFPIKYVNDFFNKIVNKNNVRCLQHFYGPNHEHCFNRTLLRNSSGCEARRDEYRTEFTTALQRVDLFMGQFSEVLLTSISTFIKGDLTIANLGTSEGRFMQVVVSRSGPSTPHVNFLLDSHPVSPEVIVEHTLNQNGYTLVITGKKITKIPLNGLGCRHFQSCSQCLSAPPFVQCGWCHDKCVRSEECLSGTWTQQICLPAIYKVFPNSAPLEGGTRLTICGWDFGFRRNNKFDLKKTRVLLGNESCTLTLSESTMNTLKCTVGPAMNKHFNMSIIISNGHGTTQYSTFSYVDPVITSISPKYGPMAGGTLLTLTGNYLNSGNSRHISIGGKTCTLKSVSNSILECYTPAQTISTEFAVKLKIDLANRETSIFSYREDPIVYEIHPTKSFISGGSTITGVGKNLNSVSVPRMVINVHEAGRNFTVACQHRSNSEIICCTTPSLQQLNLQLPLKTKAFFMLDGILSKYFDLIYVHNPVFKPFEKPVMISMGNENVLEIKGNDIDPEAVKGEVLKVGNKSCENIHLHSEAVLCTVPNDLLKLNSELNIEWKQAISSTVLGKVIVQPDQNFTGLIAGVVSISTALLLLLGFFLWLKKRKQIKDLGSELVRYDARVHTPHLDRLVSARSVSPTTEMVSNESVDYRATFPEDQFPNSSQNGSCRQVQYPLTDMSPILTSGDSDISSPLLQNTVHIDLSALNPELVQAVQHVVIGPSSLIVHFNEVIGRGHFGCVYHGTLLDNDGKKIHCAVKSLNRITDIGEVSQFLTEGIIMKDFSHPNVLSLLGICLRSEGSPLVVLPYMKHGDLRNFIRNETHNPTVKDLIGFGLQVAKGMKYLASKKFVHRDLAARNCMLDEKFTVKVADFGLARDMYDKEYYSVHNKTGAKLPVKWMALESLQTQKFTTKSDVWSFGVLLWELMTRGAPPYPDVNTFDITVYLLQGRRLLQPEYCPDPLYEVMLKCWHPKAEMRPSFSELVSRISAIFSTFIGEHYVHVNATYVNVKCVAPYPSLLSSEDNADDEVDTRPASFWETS

Relative Migration (%) (HUVEC migration assay) [1]: 152%
Index 2 (affinity index normalised to VH0/Vk0) [2]: 1.26
Relative KD to VH0/Vk0 [3]: 0.8
Kd [4]: 414 pM
Index 1 (affinity index from KD) [5]: 0.85
B5: VH6/Vk0 (antibody, V domains shown)
VH: QVQLVQSGAEVKKPGSSVKVSCKASGYSFPTHWITWVRQAPGQGLEWMGTIDPTDSYNFYGPSFQGRVTITADKSTSTAYMELSSLRSEDTAVYYCARDGNYYDSRGYYYDTFDMWGQGTLVTVSS
VL: DIQMTQSPSFLSASVGDRVTITCRASQGISTYLAWYQQKPGTAPKLLIYSASTLESGVPSRFSGSGSGTDFTLTISSLQPEDSATYYCQQADSFPLTFGGGTKVEIK
notes: CDR-grafted variant of the IgG1-based anti-cMet antibody 1E4; also called anti-cMet candidate antibody VH6/Vk0

Relative Migration (%) (HUVEC migration assay) [1]: 177%
Index 2 (affinity index normalised to VH0/Vk0) [2]: 1.23
Relative KD to VH0/Vk0 [3]: 0.81
Kd [4]: 423 pM
Index 1 (affinity index from KD) [5]: 0.832
B6: VH4/Vk2 (antibody, V domains shown)
VH: B5 VH with K23Q, A24G, K74S, V93M
VL: B5 VL with F10S, T42K, S83F
notes: CDR-grafted variant of the IgG1-based anti-cMet antibody 1E4; also called anti-cMet candidate antibody VH4/Vk2

Relative Migration (%) (HUVEC migration assay) [1]: 176%
Index 2 (affinity index normalised to VH0/Vk0) [2]: 1.24
Relative KD to VH0/Vk0 [3]: 0.81
Kd [4]: 420 pM
Index 1 (affinity index from KD) [5]: 0.838
B8: VH5/Vk2 (antibody, V domains shown)
VH: B5 VH with K23Q, A24G, K74S
VL: B5 VL with F10S, T42K, S83F
notes: CDR-grafted variant of the IgG1-based anti-cMet antibody 1E4; also called anti-cMet candidate antibody VH5/Vk2

Relative Migration (%) (HUVEC migration assay) [1]: 154%
Index 2 (affinity index normalised to VH0/Vk0) [2]: 1.18
Relative KD to VH0/Vk0 [3]: 0.85
Kd [4]: 440 pM
Index 1 (affinity index from KD) [5]: 0.8
B10: VH6/Vk2 (antibody, V domains shown)
VH: B5 VH
VL: B5 VL with F10S, T42K, S83F
notes: CDR-grafted variant of the IgG1-based anti-cMet antibody 1E4; also called anti-cMet candidate antibody VH6/Vk2

Continued, binder first:

B1: VH5/Vk0 (antibody, V domains shown)
VH: B5 VH with K23Q, A24G, K74S
VL: B5 VL
notes: CDR-grafted variant of the IgG1-based anti-cMet antibody 1E4; also called anti-cMet candidate antibody VH5/Vk0
Relative Migration (%) (HUVEC migration assay) [1]: 128%
Index 2 (affinity index normalised to VH0/Vk0) [2]: 1.48
Relative KD to VH0/Vk0 [3]: 0.68
Kd [4]: 352 pM
Index 1 (affinity index from KD) [5]: 1

B2: VH0/Vk2 (antibody, V domains shown)
VH: QVQLVQSGAEVKKPGESLRISCQGSGYSFPTHWITWVRQMPGKGLEWMGTIDPTDSYNFYGPSFQGHVTISADSSSSTAYLQWSSLKASDTAMYYCARDGNYYDSRGYYYDTFDMWGQGTLVTVSS
VL: B5 VL with F10S, T42K, S83F
notes: also called anti-cMet candidate antibody VH0/Vk2
Relative Migration (%) (HUVEC migration assay) [1]: 163%
Index 2 (affinity index normalised to VH0/Vk0) [2]: 1.02
Relative KD to VH0/Vk0 [3]: 0.98
Kd [4]: 512 pM
Index 1 (affinity index from KD) [5]: 0.688

B3: VH2/Vk0 (antibody, V domains shown)
VH: B2 VH with Q1E, R19K, Q23K, H67Q, S74K, S76I
VL: B5 VL
Relative KD to VH0/Vk0 [3]: 1.03
Kd [4]: 534 pM

B4: VH2/Vk2 (antibody, V domains shown)
VH: B2 VH with Q1E, R19K, Q23K, H67Q, S74K, S76I
VL: B5 VL with F10S, T42K, S83F
Relative KD to VH0/Vk0 [3]: 0.97
Kd [4]: 502 pM

B7: VH4/Vk0 (antibody, V domains shown)
VH: B5 VH with K23Q, A24G, K74S, V93M
VL: B5 VL
notes: CDR-grafted variant of the IgG1-based anti-cMet antibody 1E4; also called anti-cMet candidate antibody VH4/Vk0
Relative Migration (%) (HUVEC migration assay) [1]: 122%
Index 2 (affinity index normalised to VH0/Vk0) [2]: 1.32
Relative KD to VH0/Vk0 [3]: 0.76
Kd [4]: 395 pM
Index 1 (affinity index from KD) [5]: 0.891

B9: VH0/Vk0 (antibody, V domains shown)
VH: B2 VH
VL: B5 VL
notes: Derived from the IgG1-based 1E4 by a K to R change in the CH1 domain (G1m(3) allotype) and an S to T change in the light chain constant region (Km3 allotype); also called VMDO2 VH0/Vk0
Relative Migration (%) (HUVEC migration assay) [1]: 150%
Index 2 (affinity index normalised to VH0/Vk0) [2]: 1
Relative KD to VH0/Vk0 [3]: 1
Kd [4]: 520 pM
Index 1 (affinity index from KD) [5]: 0.677
